The values that follow are results of earlier work, collected in PMC10530976.

This data set deals with Kv1.2 (UniProt P16389).
Sequence of UniProt P16389 (P16389 whole entry): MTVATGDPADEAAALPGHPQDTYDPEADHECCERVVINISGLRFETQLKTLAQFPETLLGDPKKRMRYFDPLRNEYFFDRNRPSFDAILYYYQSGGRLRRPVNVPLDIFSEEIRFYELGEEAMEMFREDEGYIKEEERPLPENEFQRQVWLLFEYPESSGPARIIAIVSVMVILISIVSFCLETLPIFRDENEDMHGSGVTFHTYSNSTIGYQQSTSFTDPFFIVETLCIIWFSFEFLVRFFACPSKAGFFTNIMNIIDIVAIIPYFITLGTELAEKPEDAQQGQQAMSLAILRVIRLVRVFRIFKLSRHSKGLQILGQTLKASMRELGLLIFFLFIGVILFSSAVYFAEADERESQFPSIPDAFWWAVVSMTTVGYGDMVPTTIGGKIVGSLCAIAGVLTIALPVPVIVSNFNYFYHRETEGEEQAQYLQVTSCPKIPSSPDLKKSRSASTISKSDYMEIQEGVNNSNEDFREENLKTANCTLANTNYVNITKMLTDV

Regarding OSK2 (from UniProt P83244), the Kd is 5.97 nM.

As a reminder, the Kd is the free concentration of one partner at which half of the binding sites on the other are occupied at equilibrium, for simple one-to-one binding.
